Assay results from patent US7183387 (Genentech, dated 2007).

T1: human FcγRIIA-R131 α subunit extracellular domain-6His-GST fusion (human, UniProt P12318 34-217)
T1 construct: also called FcγRIIA-Arg131; not shown: glutathione S-transferase (GST)
T1 sequence: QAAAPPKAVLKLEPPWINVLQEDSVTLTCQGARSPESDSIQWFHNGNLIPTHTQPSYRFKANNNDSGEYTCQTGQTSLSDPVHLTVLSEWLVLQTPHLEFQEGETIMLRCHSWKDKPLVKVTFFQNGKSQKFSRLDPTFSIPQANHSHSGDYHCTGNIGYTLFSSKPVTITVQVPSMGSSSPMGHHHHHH

T2: human FcγRIIB α subunit extracellular domain-6His-GST fusion (human, UniProt P31994 43-217)
T2 construct: not shown: glutathione S-transferase (GST)
T2 sequence: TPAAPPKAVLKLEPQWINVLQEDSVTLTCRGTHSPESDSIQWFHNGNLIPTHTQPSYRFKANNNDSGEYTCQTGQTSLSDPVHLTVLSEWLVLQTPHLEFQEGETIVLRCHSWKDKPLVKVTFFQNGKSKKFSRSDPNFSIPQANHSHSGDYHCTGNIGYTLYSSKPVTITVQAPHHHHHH

T3: human FcγRIIA-R131 α subunit extracellular domain-His6-GST fusion (human, UniProt P12318 34-217)
T3 construct: ECD-6His-GST fusion made in 293 cells; also called FcγRIIA-Arg131; not shown: glutathione S transferase (GST)
T3 sequence: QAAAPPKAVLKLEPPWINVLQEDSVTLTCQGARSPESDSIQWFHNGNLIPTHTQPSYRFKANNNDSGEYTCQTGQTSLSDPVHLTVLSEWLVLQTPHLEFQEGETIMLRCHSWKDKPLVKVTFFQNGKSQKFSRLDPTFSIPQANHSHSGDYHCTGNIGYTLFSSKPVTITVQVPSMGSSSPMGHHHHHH

T4: human FcγRIIA-H131 α subunit extracellular domain-His6-GST fusion (human, UniProt P12318 34-217)
T4 construct: ECD-6His-GST fusion made in 293 cells; also called FcγRIIA-His131; not shown: glutathione S transferase (GST)
T4 sequence: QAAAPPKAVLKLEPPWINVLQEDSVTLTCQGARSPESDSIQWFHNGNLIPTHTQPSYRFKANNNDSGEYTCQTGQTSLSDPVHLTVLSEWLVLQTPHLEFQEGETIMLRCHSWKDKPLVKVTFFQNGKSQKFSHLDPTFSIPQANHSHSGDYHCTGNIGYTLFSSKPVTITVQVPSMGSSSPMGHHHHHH

T5: human FcγRIIA-H131 α subunit extracellular domain-His6-GST fusion protein (human, UniProt P12318 34-217)
T5 construct: also called FcγRIIA-His131; not shown: glutathione S-transferase (GST)
T5 sequence: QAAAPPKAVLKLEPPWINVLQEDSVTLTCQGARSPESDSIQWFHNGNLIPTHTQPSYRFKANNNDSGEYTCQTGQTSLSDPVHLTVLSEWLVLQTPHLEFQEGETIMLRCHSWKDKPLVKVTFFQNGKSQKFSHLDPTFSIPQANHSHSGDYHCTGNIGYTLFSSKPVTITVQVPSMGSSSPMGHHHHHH


Experiments:
[1] = target: T1, human FcγRIIA-R131 α subunit …; test: ELISA, IgG:IgE hexamers on receptor-GST
[2] = target: T2, human FcγRIIB α subunit extracellular …; test: ELISA, IgG:IgE hexamers on receptor-GST
[3] = target: T6, human FcγRIIIA-F158 α subunit extracellular domain-6His-GST fusion (human, UniProt P08637 17-208); test: ELISA, IgG:IgE hexamers on receptor-GST
T6 construct: also called FcγRIIIA-Phe158; not shown: glutathione S-transferase (GST)
T6 sequence (P08637 other isoform, or with tags, fused parts or gaps, form in doubt): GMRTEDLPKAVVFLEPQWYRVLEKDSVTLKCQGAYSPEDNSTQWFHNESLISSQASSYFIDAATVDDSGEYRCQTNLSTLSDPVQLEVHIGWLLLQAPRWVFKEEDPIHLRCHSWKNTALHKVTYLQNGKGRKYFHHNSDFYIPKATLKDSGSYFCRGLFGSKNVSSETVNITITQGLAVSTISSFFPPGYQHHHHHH

[4] = target: T3, human FcγRIIA-R131 α subunit …; test: ELISA, IgG complex, receptor coated
[5] = target: T4, human FcγRIIA-H131 α subunit …; test: ELISA, IgG complex, receptor coated
[6] = target: T7, human FcγRIIIA-F158 α subunit extracellular domain-His6-GST fusion (human, UniProt P08637 17-208); test: ELISA, IgG complex, receptor coated
T7 construct: ECD-6His-GST fusion made in 293 cells; also called FcγRIIIA-Phe158; not shown: glutathione S transferase (GST)
T7 sequence (P08637 other isoform, or with tags, fused parts or gaps, form in doubt): as above

[7] = target: T5, human FcγRIIA-H131 α subunit …; test: ELISA, IgG:IgE hexamer on coated FcγRIIA-H131-GST
[8] = target: T5, human FcγRIIA-H131 α subunit …; test: ELISA; binding ratio on FcγRIIA-H131 divided by that on FcγRIIA-R131

ratio to native IgG1 [1] | ratio to native IgG1 [2] | ratio to native IgG1 [3] | ratio of binding, variant/native IgG1 (mean) [4] [ratio] | ratio of binding, variant/native IgG1 (mean) [5] [ratio] | ratio of binding, variant/native IgG1 (mean) [6] [ratio] | ratio of binding of the variant to that of native IgG1 [7] | H131/R131 [8] | Binder
0.47 | 0.3 | 1.21 | – | – | – | – | – | E27 IgG1 variant T256(269)A/D280(295)A/S298(317)A/T307(326)A (antibody, also called IG2 1051) heavy: EVQLVESGGGLVQPGGSLRLSCAVSGYSITSGYSWNWIRQAPGKGLEWVASIKYSGETKYNPSVKGRITISRDDSKNTFYLQMNSLRAEDTAVYYCARGSHYFGHWHFAVWGQGTLVTVSSASTKGPSVFPLAPSSKSTSGGTAALGCLVKDYFPEPVTVSWNSGALTSGVHTFPAVLQSSGLYSLSSVVTVPSSSLGTQTYICNVNHKPSNTKVDKKVEPKSCDKTHTCPPCPAPELLGGPSVFLFPPKPKDTLMISRAPEVTCVVVDVSHEDPEVKFNWYVAGVEVHNAKTKPREEQYNATYRVVSVLAVLHQDWLNGKEYKCKVSNKALPAPIEKTISKAKGQPREPQVYTLPPSREEMTKNQVSLTCLVKGFYPSDIAVEWESNGQPENNYKTTPPVLDSDGSFFLYSKLTVDKSRWQQGNVFSCSVMHEALHNHYTQKSLSLSPGK light: DIQLTQSPSSLSASVGDRVTITCRASKPVDGEGDSYLNWYQQKPGKAPKLLIYAASYLESGVPSRFSGSGSGTDFTLTISSLQPEDFATYYCQQSHEDPYTFGQGTKVEIKRTVAAPSVFIFPPSDEQLKSGTASVVCLLNNFYPREAKVQWKVDNALQSGNSQESVTEQDSKDSTYSLSSTLTLSKADYEKHKVYACEVTHQGLSSPVTKSFNRGEC
– | – | – | 1.64 | 1.05 | 1.14 | – | – | anti-IgE E27 IgG1 variant S267(280)A (antibody, Fc variant of E27; also called IG2 15; G15) heavy: not shown light: DIQLTQSPSSLSASVGDRVTITCRASKPVDGEGDSYLNWYQQKPGKAPKLLIYAASYLESGVPSRFSGSGSGTDFTLTISSLQPEDFATYYCQQSHEDPYTFGQGTKVEIKRTVAAPSVFIFPPSDEQLKSGTASVVCLLNNFYPREAKVQWKVDNALQSGNSQESVTEQDSKDSTYSLSSTLTLSKADYEKHKVYACEVTHQGLSSPVTKSFNRGEC
– | – | – | 1.15 | 1.11 | 1.07 | – | – | anti-IgE E27 IgG1 variant N315(334)A (antibody, Fc variant of E27; also called IG2 45; Asn315Ala) heavy: not shown light: DIQLTQSPSSLSASVGDRVTITCRASKPVDGEGDSYLNWYQQKPGKAPKLLIYAASYLESGVPSRFSGSGSGTDFTLTISSLQPEDFATYYCQQSHEDPYTFGQGTKVEIKRTVAAPSVFIFPPSDEQLKSGTASVVCLLNNFYPREAKVQWKVDNALQSGNSQESVTEQDSKDSTYSLSSTLTLSKADYEKHKVYACEVTHQGLSSPVTKSFNRGEC
– | – | – | 1.13 | 1.04 | 1.1 | – | – | anti-IgE E27 IgG1 variant K317(336)A (antibody, Fc variant of E27; also called IG2 46; Lys317Ala) heavy: not shown light: DIQLTQSPSSLSASVGDRVTITCRASKPVDGEGDSYLNWYQQKPGKAPKLLIYAASYLESGVPSRFSGSGSGTDFTLTISSLQPEDFATYYCQQSHEDPYTFGQGTKVEIKRTVAAPSVFIFPPSDEQLKSGTASVVCLLNNFYPREAKVQWKVDNALQSGNSQESVTEQDSKDSTYSLSSTLTLSKADYEKHKVYACEVTHQGLSSPVTKSFNRGEC
– | – | – | 1.21 | 0.59 | 0.09 | – | – | anti-IgE E27 IgG1 variant S267(280)G (antibody, Fc variant of E27; also called IG2 189; Ser267Gly) heavy: not shown light: DIQLTQSPSSLSASVGDRVTITCRASKPVDGEGDSYLNWYQQKPGKAPKLLIYAASYLESGVPSRFSGSGSGTDFTLTISSLQPEDFATYYCQQSHEDPYTFGQGTKVEIKRTVAAPSVFIFPPSDEQLKSGTASVVCLLNNFYPREAKVQWKVDNALQSGNSQESVTEQDSKDSTYSLSSTLTLSKADYEKHKVYACEVTHQGLSSPVTKSFNRGEC
– | – | – | – | – | – | 0.45 ratio (variant/native IgG1) | 16.6 ratio (H131 value/R131 value) | anti-IgE E27 IgG1 variant Asp270Ala (antibody, also called D270(283)A; D283A) heavy: not shown light: DIQLTQSPSSLSASVGDRVTITCRASKPVDGEGDSYLNWYQQKPGKAPKLLIYAASYLESGVPSRFSGSGSGTDFTLTISSLQPEDFATYYCQQSHEDPYTFGQGTKVEIKRTVAAPSVFIFPPSDEQLKSGTASVVCLLNNFYPREAKVQWKVDNALQSGNSQESVTEQDSKDSTYSLSSTLTLSKADYEKHKVYACEVTHQGLSSPVTKSFNRGEC
– | – | – | 1.12 | 1.16 | 0.87 | – | – | anti-IgE E27 IgG1 variant K320(339)A (antibody, Fc variant of E27; also called IG2 48; Lys320Ala) heavy: not shown light: DIQLTQSPSSLSASVGDRVTITCRASKPVDGEGDSYLNWYQQKPGKAPKLLIYAASYLESGVPSRFSGSGSGTDFTLTISSLQPEDFATYYCQQSHEDPYTFGQGTKVEIKRTVAAPSVFIFPPSDEQLKSGTASVVCLLNNFYPREAKVQWKVDNALQSGNSQESVTEQDSKDSTYSLSSTLTLSKADYEKHKVYACEVTHQGLSSPVTKSFNRGEC
– | – | – | 1.19 | 1.37 | 1.12 | – | – | anti-IgE E27 IgG1 variant T307(326)A (antibody, Fc variant of E27; also called IG2 41; Thr307Ala) heavy: not shown light: DIQLTQSPSSLSASVGDRVTITCRASKPVDGEGDSYLNWYQQKPGKAPKLLIYAASYLESGVPSRFSGSGSGTDFTLTISSLQPEDFATYYCQQSHEDPYTFGQGTKVEIKRTVAAPSVFIFPPSDEQLKSGTASVVCLLNNFYPREAKVQWKVDNALQSGNSQESVTEQDSKDSTYSLSSTLTLSKADYEKHKVYACEVTHQGLSSPVTKSFNRGEC
0.44 | 0.22 | 1.41 | – | – | – | – | – | E27 IgG1 variant T256(269)A/S298(317)A (antibody, also called IG2 1059) heavy: not shown light: DIQLTQSPSSLSASVGDRVTITCRASKPVDGEGDSYLNWYQQKPGKAPKLLIYAASYLESGVPSRFSGSGSGTDFTLTISSLQPEDFATYYCQQSHEDPYTFGQGTKVEIKRTVAAPSVFIFPPSDEQLKSGTASVVCLLNNFYPREAKVQWKVDNALQSGNSQESVTEQDSKDSTYSLSSTLTLSKADYEKHKVYACEVTHQGLSSPVTKSFNRGEC
– | – | – | 1.22 | 1.09 | 0.52 | – | – | anti-IgE E27 IgG1 variant H268(281)A (antibody, Fc variant of E27; also called IG2 16; G16) heavy: not shown light: DIQLTQSPSSLSASVGDRVTITCRASKPVDGEGDSYLNWYQQKPGKAPKLLIYAASYLESGVPSRFSGSGSGTDFTLTISSLQPEDFATYYCQQSHEDPYTFGQGTKVEIKRTVAAPSVFIFPPSDEQLKSGTASVVCLLNNFYPREAKVQWKVDNALQSGNSQESVTEQDSKDSTYSLSSTLTLSKADYEKHKVYACEVTHQGLSSPVTKSFNRGEC
– | – | – | 1.12 | 1.04 | 0.84 | – | – | anti-IgE E27 IgG1 variant V305(324)A (antibody, Fc variant of E27; also called IG2 40; Val305Ala) heavy: not shown light: DIQLTQSPSSLSASVGDRVTITCRASKPVDGEGDSYLNWYQQKPGKAPKLLIYAASYLESGVPSRFSGSGSGTDFTLTISSLQPEDFATYYCQQSHEDPYTFGQGTKVEIKRTVAAPSVFIFPPSDEQLKSGTASVVCLLNNFYPREAKVQWKVDNALQSGNSQESVTEQDSKDSTYSLSSTLTLSKADYEKHKVYACEVTHQGLSSPVTKSFNRGEC
– | – | – | 1.54 | 1.07 | 0.84 | – | – | anti-IgE E27 IgG1 variant S267(280)A/H268(281)A (antibody, Fc variant of E27; also called IG2 96; Ser267Ala/His268Ala) heavy: not shown light: DIQLTQSPSSLSASVGDRVTITCRASKPVDGEGDSYLNWYQQKPGKAPKLLIYAASYLESGVPSRFSGSGSGTDFTLTISSLQPEDFATYYCQQSHEDPYTFGQGTKVEIKRTVAAPSVFIFPPSDEQLKSGTASVVCLLNNFYPREAKVQWKVDNALQSGNSQESVTEQDSKDSTYSLSSTLTLSKADYEKHKVYACEVTHQGLSSPVTKSFNRGEC
